Test results taken from US20200231681A1.

What was measured:
[1] = target: c-Met receptor on human tumor cells (MKN45, NCI-H820, HCC827) (human) (UniProt P08581); assay: cell-based or functional assay
[2] = target: EGFR on HCC827 cells (EGFR E746-A750 deletion mutation) (human) (UniProt P00533); assay: cell-based or functional assay
[3] = target: cynomolgus monkey EGFR ECD (SiNo. Biological, 90285-008B) (cynomolgus monkey); assay: SPR (BIAcore), antibody captured by anti-human IgG Fc, antigen as analyte, 1:1 Langmuir
[4] = target: c-Met receptor on human tumor cells (MKN45, NCI-H820, HCC827) (human) (UniProt P08581); assay: flow cytometry on MKN45 cells, 100 nM control antibody, anti-human kappa LC-FITC (column of hu8C4)
[5] = target: c-Met receptor on human tumor cells (MKN45, NCI-H820, HCC827) (human) (UniProt P08581); assay: flow cytometry on MKN45 cells, 100 nM control antibody, anti-human kappa LC-FITC (column of OA-5D5)

Sequence of c-Met receptor on human tumor cells (MKN45, NCI-H820, HCC827) (human) (P08581 25-1390): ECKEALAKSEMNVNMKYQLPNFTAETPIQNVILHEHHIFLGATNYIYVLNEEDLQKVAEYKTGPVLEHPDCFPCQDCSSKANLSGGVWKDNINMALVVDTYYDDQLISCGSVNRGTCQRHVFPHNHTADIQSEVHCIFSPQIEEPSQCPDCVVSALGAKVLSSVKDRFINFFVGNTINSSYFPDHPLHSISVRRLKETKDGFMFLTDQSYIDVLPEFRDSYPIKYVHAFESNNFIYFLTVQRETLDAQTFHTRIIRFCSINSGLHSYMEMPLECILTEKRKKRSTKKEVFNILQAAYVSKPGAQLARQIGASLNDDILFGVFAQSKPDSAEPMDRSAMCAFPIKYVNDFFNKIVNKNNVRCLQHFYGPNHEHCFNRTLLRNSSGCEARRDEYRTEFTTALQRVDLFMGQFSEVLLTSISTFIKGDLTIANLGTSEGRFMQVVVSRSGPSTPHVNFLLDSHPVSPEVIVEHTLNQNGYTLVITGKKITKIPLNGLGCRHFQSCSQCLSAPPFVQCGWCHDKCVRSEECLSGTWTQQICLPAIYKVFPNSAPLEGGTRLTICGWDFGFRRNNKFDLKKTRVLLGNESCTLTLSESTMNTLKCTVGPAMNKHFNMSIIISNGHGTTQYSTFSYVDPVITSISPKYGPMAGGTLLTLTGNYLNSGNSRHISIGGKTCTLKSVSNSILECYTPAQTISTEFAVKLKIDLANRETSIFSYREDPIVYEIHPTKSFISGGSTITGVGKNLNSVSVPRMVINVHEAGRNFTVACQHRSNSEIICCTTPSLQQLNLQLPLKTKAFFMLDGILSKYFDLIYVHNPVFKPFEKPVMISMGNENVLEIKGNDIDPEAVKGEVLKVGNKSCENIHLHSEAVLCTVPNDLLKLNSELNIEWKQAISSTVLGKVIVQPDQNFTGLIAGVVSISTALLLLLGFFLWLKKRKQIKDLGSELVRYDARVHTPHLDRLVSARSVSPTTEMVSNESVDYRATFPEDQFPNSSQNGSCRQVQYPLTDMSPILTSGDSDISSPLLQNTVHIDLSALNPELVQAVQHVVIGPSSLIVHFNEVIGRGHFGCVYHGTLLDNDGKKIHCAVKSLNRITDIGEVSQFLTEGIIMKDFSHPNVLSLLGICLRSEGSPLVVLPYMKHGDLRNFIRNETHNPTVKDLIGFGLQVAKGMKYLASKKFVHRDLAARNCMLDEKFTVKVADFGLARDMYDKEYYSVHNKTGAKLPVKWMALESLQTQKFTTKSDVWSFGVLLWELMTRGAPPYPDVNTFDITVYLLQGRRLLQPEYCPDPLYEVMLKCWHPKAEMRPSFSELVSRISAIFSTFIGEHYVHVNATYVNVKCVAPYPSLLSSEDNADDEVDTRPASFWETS

Substance | c-Met on the surface of HCC827 cells after 18 h with 100 nM antibody, Means (geo MFI); human IgG control 5653 [1] [geo MFI] | decrease of c-Met on the surface of HCC827 cells [1] [%] | also measured
C-EM1 (EM1-MAb, Janssen; control c-Met/EGFR bispecific antibody) | 3660 | 40 | EGFR on the surface of HCC827 cells after 18 h with 100 nM antibody, Means (geo MFI); human IgG control 11494 [2]: 11500 geo MFI
C-LA480 (LA480, Lilly; control c-Met antibody) | 3270 | 40 | 
Vectibix (antibody) |  |  | Kd [3]: 0.209 nM
human IgG antibody (negative control) |  |  | FITC MFI [IgG control] (FITC geo-mean (MFI)) [4]: 127; FITC MFI [IgG control] (FITC geo-mean (MFI)) [5]: 127
